Laboratory results taken from the supplement of paper PMC12042874.
± gives the uncertainty stated by the source.

Assay: amyloid nucleation score (Sup35N fusion, yeast selection) (log enrichment); library NNK1; higher = more nucleation; inactive = no reads after selection
Summary of the method: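 After 24 hours of induction with 100 μM copper sulfate, psi-negative yeast expressing peptides of 20 random codons fused to Sup35N were grown for 7 days at 30°C on medium lacking adenine and uracil. Input and output plasmid inserts were sequenced with Illumina, and sequences with under 100 input reads were discarded. Scores for nucleation are the DiMSum log enrichment of output over input reads, centred on the mode score of non-aggregating sequences.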
Work on YARVGKRNGSRNPYFINWGR yielded an amyloid nucleation score of -0.733 ± 1.3. In the case of YATTD, the amyloid nucleation score is reported as -0.776 ± 0.58. With YAVRYFETVVLQGIEVIPES the amyloid nucleation score was 0.205 ± 0.6. Work on YAYMVLVVPRDSVLEESECR yielded an amyloid nucleation score of -0.087 ± 0.78. Work on YCDAYPGRKTEILVVQLF yielded an amyloid nucleation score of 5.6 ± 0.064. YCGSTWASVWGPIICPRYRA gave an amyloid nucleation score of 0.208 ± 0.33. In the case of YCMCCNNRVLMVYHCTQVSA, the amyloid nucleation score is reported as “inactive”. YCSHMLRMYFSEDRPLAQLM showed an amyloid nucleation score of -0.399 ± 0.74. YCSKRFLVKRNFLLFYNCDF gave an amyloid nucleation score of 1.03 ± 0.5. In the case of YDLGMLLF, the amyloid nucleation score is reported as 0.812 ± 0.77. YDWNNLDVLLHCLFFGDKRR gave an amyloid nucleation score of -0.021 ± 0.26. Work on YEALQ yielded an amyloid nucleation score of -0.703 ± 1. YEFTYLWNNKVLLGLCCYGG showed an amyloid nucleation score of 4 ± 0.13. In the case of YEKSFGTYTM, the amyloid nucleation score is reported as -0.045 ± 0.28. In the case of YEKVSDQGNLGLASIYLAGK, the amyloid nucleation score is reported as -0.159 ± 0.22. YESCRVHVSIIYPPASGHRA showed an amyloid nucleation score of 2.9 ± 0.12. For YESRCGWASRNFSLSENQNS, the amyloid nucleation score was “inactive”. YFAPFRGTSWFTRSCN showed an amyloid nucleation score of -0.011 ± 0.79. In the case of YFAVL, the amyloid nucleation score is reported as “inactive”. Substance YFCILGSNDSNRIGWPRRST has an amyloid nucleation score of 0.101 ± 0.42. YFDLWALSVLCCFFGVNSPF gave an amyloid nucleation score of 5.69 ± 0.087. YFDWLGCLLTWQRKYVQT gave an amyloid nucleation score of -0.048 ± 0.93. For YFLSHRCTGGLPIS, the amyloid nucleation score was -0.028 ± 0.9. For YFSHTSWLYFSTPFIVVVRV, the amyloid nucleation score was 0.25 ± 0.97. YFSKICRSLFDM gave an amyloid nucleation score of 0.906 ± 1.1. YFSKTISFLFSFNSCYEFIK gave an amyloid nucleation score of 1.19 ± 0.44. In the case of YFSLFYCKVSGESTLYFCGH, the amyloid nucleation score is reported as 5.88 ± 0.066. With YFSVHF the amyloid nucleation score was 2.29 ± 0.15. With YFWLNTNTLCSYWRMRHWVS the amyloid nucleation score was 0.524 ± 0.61. Work on YGCVCGSDNTHWNYMLVNNH yielded an amyloid nucleation score of 7.222 ± 0.051. YGFRQGTTSDNGTFTRIVHM gave an amyloid nucleation score of -0.336 ± 0.5. For YGHLVYTDHVWRRFETVKG, the amyloid nucleation score was 0.661 ± 0.84. YGLSSGFLYADLEDVPALLW gave an amyloid nucleation score of 0.681 ± 0.45. In the case of YGPGWTRWLENLSLYSMYEP, the amyloid nucleation score is reported as -0.102 ± 1.5. For YGPSNYTIAQSS, the amyloid nucleation score was -0.234 ± 0.43. With YGRQG the amyloid nucleation score was 0.123 ± 0.49. YGSLFED showed an amyloid nucleation score of 0.108 ± 0.77. YGSLIHMIRNEGLNIGGKSA showed an amyloid nucleation score of -0.51 ± 0.4. Substance YHGIPFCMFFRVYAVR has an amyloid nucleation score of 0.216 ± 1.4. Substance YHWVMTASVCSPGELNYRSN has an amyloid nucleation score of 0.363 ± 0.78. YIAVGV gave an amyloid nucleation score of 0.015 ± 0.62. Substance YIGECLRKLIRCAHKDCEGY has an amyloid nucleation score of -1.49 ± 1.2. In the case of YIIVFDVNWFVKFGCFPRGS, the amyloid nucleation score is reported as “inactive”. For YIIVLA, the amyloid nucleation score was 1.28 ± 0.61. Work on YIIWFPFSKLVLMRYHRSWG yielded an amyloid nucleation score of -0.005 ± 0.22. In the case of YILLLFSVVWIKKFGDCSCA, the amyloid nucleation score is reported as -0.048 ± 0.35. YIMILYRKGMFILRVFSLLL showed an amyloid nucleation score of -0.293 ± 0.24. For YIMSGRFTNY, the amyloid nucleation score was 2.13 ± 0.28. Substance YISKSCRWSRTASSNVCIFI has an amyloid nucleation score of 0.022 ± 0.33. YKAKGRNAVS gave an amyloid nucleation score of -0.689 ± 1.6. YKIGLT gave an amyloid nucleation score of -0.227 ± 0.48. YKLPAAIDRMIVVQCNRPSI gave an amyloid nucleation score of -0.246 ± 0.61. With YKSCCVGITPM the amyloid nucleation score was -0.551 ± 0.49. For YKSVLHSSRSGGAYGVVKSL, the amyloid nucleation score was -0.038 ± 0.45. YKWIDRMVDERQLMSSKRQW gave an amyloid nucleation score of 0.099 ± 0.66. YKWLLAGGNTKCSKVRNAYW showed an amyloid nucleation score of -0.356 ± 0.39. Work on YKYINSVQIYEHV yielded an amyloid nucleation score of 4.19 ± 0.13. In the case of YLASFMNLAISVGLVDGLCG, the amyloid nucleation score is reported as -1.29 ± 1.7. For YLFHMKARCMLFHKLLTYSR, the amyloid nucleation score was “inactive”. YLFRLVTVFNVVKATLVVTV gave an amyloid nucleation score of -0.289 ± 0.92. In the case of YLGSGCRFETSYLDATFPVS, the amyloid nucleation score is reported as 0.387 ± 1. Substance YLHSSGGYNFSVRVSKYNCE has an amyloid nucleation score of -0.689 ± 0.61. Work on YLLSCVGIASLGFKVFL yielded an amyloid nucleation score of -0.718 ± 0.7. With YLMFFVYCVRLRYLSWALSQ the amyloid nucleation score was -1.35 ± 1.9. In the case of YLMMVIRKVFVPCCNG, the amyloid nucleation score is reported as 0.378 ± 0.21. YLPIKPFIYANILWGFTVSC gave an amyloid nucleation score of -0.025 ± 1. Substance YLQGENNWRVVGQRLSTSPA has an amyloid nucleation score of 0.03 ± 0.4. YLRRSGMLAFSSSHHR gave an amyloid nucleation score of 1.15 ± 0.4. YLSCLNFRLGSMFMRSL showed an amyloid nucleation score of 0.653 ± 0.93. YLVPELYEMSNS showed an amyloid nucleation score of 1.38 ± 0.79. Work on YLWSSCLGGDSANWLLY yielded an amyloid nucleation score of 0.714 ± 0.32. For YMASEG, the amyloid nucleation score was “inactive”. YMGLYWLDRRMICMQLLWTL gave an amyloid nucleation score of 2.37 ± 0.4. For YMGYCYNTTKVCKLRQIYAG, the amyloid nucleation score was 1.71 ± 0.54. Substance YMHSGGQGLLCIQVSYTMSF has an amyloid nucleation score of -0.503 ± 0.83. YMILLSLGVFFTPVPDYFAQ gave an amyloid nucleation score of -0.385 ± 0.68. For YMIWTIFNMVSIGRPQFLRL, the amyloid nucleation score was -0.716 ± 0.56. With YMKLRCMK the amyloid nucleation score was 0.019 ± 0.6. For YMLGREMS, the amyloid nucleation score was “inactive”. Substance YMSVWFVTVSMDCVGRNSRT has an amyloid nucleation score of 4.19 ± 0.058. YNAARLFPYVNVWGII showed an amyloid nucleation score of -0.305 ± 1.3. YNISDSTSPMVASRMGRLGQ gave an amyloid nucleation score of 0.364 ± 0.45. Work on YNLYRH yielded an amyloid nucleation score of 0.406 ± 0.51. In the case of YNNLIPTYHHWGSFHMV, the amyloid nucleation score is reported as 1.32 ± 0.68. YNSVKVNRFH showed an amyloid nucleation score of 1.3 ± 0.74. YNTRTRILWARVVNRVINLW gave an amyloid nucleation score of 4.95 ± 0.072.
